Results: publication PMC5832153

Target: FliC-aGFP_ENH_V2 (Salmonella) (UniProt P06179)
Assay: ITC; sfGFP (0.065 mM) injected in 10 μl portions into FliC-aGFP_ENH in the cell; 25 °C; 20 mM Tris-HCl, 150 mM NaCl, pH 8.5; one-binding-site model

UniProt P06179, sequence (P06179 whole entry): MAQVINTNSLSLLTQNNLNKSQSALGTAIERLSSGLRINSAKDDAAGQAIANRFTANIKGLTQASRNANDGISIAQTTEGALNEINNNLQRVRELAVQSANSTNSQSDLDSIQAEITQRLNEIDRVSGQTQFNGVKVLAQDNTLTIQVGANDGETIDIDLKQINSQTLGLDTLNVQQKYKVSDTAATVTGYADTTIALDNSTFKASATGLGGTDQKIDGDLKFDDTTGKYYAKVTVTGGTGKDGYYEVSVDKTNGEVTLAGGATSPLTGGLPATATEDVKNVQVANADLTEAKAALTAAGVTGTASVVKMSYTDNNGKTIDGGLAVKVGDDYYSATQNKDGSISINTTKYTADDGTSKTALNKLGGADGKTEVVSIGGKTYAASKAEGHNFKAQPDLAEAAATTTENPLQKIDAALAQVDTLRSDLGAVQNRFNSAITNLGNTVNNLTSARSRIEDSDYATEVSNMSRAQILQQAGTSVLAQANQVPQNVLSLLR

C-terminally His-tagged superfolder GFP (from UniProt P42212 1-238) (natural protein)
Kd: 1.1 nM | dH: -9.3 kcal/mol | stoichiometry N: 0.86
